This note sets out measurements from paper PMC3749136 (PLoS ONE, 2013).

This assay concerns the target T1, JAK1 JH1 domain (UniProt P23458 875-1153).
T1 construct: JAK1, JH1 (kinase) domain; also called JAK1 kinase (JH1) domain; active JAK1 JH1 domain
The assay is described as follows: SPR; SOCS5 175-244 immobilised by amine coupling on a CM5 chip; JAK JH1 domains (62.5 nM to 2 µM) injected; 10 mM HEPES pH 8.0, 200 mM NaCl, 3.0 mM EDTA, 0.05% Tween20; steady-state fit, apparent KD; BIAcore3000. To be noted: both partners purified. Background: In SPR one partner is held on a chip, and binding of the other changes the refractive index at the surface.

T1 sequence (P23458 875-1153): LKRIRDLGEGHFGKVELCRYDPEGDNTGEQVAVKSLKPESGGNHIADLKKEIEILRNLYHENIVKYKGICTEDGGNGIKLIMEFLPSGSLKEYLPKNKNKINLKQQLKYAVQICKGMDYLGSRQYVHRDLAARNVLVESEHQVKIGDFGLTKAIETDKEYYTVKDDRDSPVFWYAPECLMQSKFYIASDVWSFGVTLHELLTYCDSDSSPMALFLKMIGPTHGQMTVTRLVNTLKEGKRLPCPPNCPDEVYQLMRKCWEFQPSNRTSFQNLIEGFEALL

B1: SOCS5 175–244 fragment (domain or fragment, mouse, UniProt O54928 175-244, looked up)
chain: RSLRQRLQDTVGLCFPMRTYSKQSKPLFSNKRKIHLSELMLEKCPFPAGSDLAQKWHLIKQHTAPVSPHS
notes: SOCS5, mouse, residues 175-244 (region conserved in SOCS4); Mass by LC-MS 8103 Da; also called JIR; source: E. coli BL21 (DE3), GST fusion purified on glutathione-Sepharose 4B, cleaved with TEV, RP-HPLC; not shown: GST, N-terminal, cleaved
As for B1, the Kd came out at 500 nM.
